Experimental data: IntAct's records for PubMed 16286920

B1: Galectin-9 (Mus musculus), O08573-2 (parent)
chain: MALFSAQSPYINPIIPFTGPIQGGLQEGLQVTLQGTTKSFAQRFVVNFQNSFNGNDIAFHFNPRFEEGGYVVCNTKQNGQWGPEERKMQMPFQKGMPFELCFLVQRSEFKVMVNKKFFVQYQHRVPYHLVDTIAVSGCLKLSFITFQTQNFRPAHQAPMAQTTIHMVHSTPGQMFSTPGIPPVVYPTPAYTIPFYTPIPNGLYPSKSIMISGNVLPDATRFHINLRCGGDIAFHLNPRFNENAVVRNTQINNSWGQEERSLLGRMPFSRGQSFSVWIICEGHCFKVAVNGQHMCEYYHRLKNLQDINTLEVAGDIQLTHVQT

Variants of: B1
Settings: with havr2_mouse Havcr2, Q8VIM0
Chain of havr2_mouse Havcr2, Q8VIM0 (Q8VIM0 whole entry): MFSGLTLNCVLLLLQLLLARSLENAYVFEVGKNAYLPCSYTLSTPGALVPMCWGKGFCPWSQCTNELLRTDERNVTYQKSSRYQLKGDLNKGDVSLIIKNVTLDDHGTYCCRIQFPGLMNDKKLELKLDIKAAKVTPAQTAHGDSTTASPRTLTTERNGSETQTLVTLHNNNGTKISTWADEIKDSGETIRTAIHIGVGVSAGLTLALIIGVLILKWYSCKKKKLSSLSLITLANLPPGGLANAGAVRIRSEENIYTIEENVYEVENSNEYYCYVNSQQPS

Variant | effect of a mutation on the interaction
R238A | decreasing interaction strength
R64A | decreasing interaction strength
R64A;R238A | disrupting interaction strength
